Consider one substance from PMC11852808.

For this series the following is noted: acetylation at K3.

Turning to protein VII: K3Q acetyl mimic, the localisation_or_trafficking result is reported as “no change”.
